Target: HLA-B*44:05 (Homo sapiens, UniProt P01889, A223V/A65T/A93T/A95T/D201E/D98Y/E176V/E187L/E204Q/E69K/G107R/H137Y/K202T/L105A/L119I/N104T/N87E/Q56L/Q94N/R106L/R155S/R180D/S101N/S121R/S35A/S48T/T118I/V36M/W191S/Y91S)
Test: MHC binding assay (UV-ligand exchange, β2m ELISA, peptide exchange yield)
Settings: binding to HLA-B*44:05
Method in brief: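 Binding is read as exchange yield, i.e. stabilized complex remaining after UV cleavage of a photolabile ligand in the presence of the candidate peptide. Streptavidin-captured monomers (100-fold dilution) are probed with HRP-anti-β2m, 1h at 37° C, TMB, A450. Standard curve: HLA-A*02:01/MLA-001 monomers at 15-500 ng/ml.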

Row | Peptide exchange (MHC class I binding score, peptide exchange yield) | Substance
1 | ++ (>20% = ++) | 283 (VEEEISRHY; listed as Homo sapiens) [compound 283]
2 | +++ (>50 = +++) | 423 (KEAINLLKNY; listed as Homo sapiens) [compound 423]
3 | + (>10% = +) | 306 (RRHPSFKRF; listed as Homo sapiens) [compound 306]
4 | +++ (>50 = +++) | 354 (TEIMEKTTL; listed as Homo sapiens) [compound 354]
5 | ++ (>20% = ++) | 346 (EEIENLQAQF; listed as Homo sapiens) [compound 346]
6 | +++ (>50 = +++) | 383 (EEMERDLDMY; listed as Homo sapiens) [compound 383]
7 | ++ (>20% = ++) | 297 (DEYLIPQQGFF; listed as Homo sapiens) [compound 297]
8 | +++ (>50 = +++) | 374 (NEAEWQEIL; listed as Homo sapiens) [compound 374]
9 | +++ (>50 = +++) | 359 (NEFRRKLTF; listed as Homo sapiens) [compound 359]
10 | +++ (>50 = +++) | 285 (AEHPDFSPCSF; listed as Homo sapiens) [compound 285]
11 | ++ (>20% = ++) | 356 (TEAVLNRY; listed as Homo sapiens) [compound 356]
12 | +++ (>50 = +++) | 338 (AEMKFYVVI; listed as Homo sapiens) [compound 338]
13 | ++++ (>75% = ++++) | 325 (AEQEIMKKV; listed as Homo sapiens) [compound 325]
14 | ++++ (>75% = ++++) | 326 (RELLDFSSW; listed as Homo sapiens) [compound 326]
15 | +++ (>50 = +++) | 331 (KELEATKQYL; listed as Homo sapiens) [compound 331]
16 | ++ (>20% = ++) | 300 (KQTEATMTF; listed as Homo sapiens) [compound 300]
17 | ++ (>20% = ++) | 373 (REDPIVYEI; listed as Homo sapiens) [compound 373]
18 | +++ (>50 = +++) | 337 (VEVIPEGAML; listed as Homo sapiens) [compound 337]
19 | + (>10% = +) | 319 (YEWEPFAEV; listed as Homo sapiens) [compound 319]
20 | ++++ (>75% = ++++) | 431 (QELLDFTNW; listed as Homo sapiens) [compound 431]
21 | +++ (>50 = +++) | 419 (SELSLLSLY; listed as Homo sapiens) [compound 419]
22 | +++ (>50 = +++) | 407 (MEFQNTQSY; listed as Homo sapiens) [compound 407]
23 | ++++ (>75% = ++++) | 400 (TELGLFGVW; listed as Homo sapiens) [compound 400]
24 | +++ (>50 = +++) | 318 (SESSSFLKV; listed as Homo sapiens) [compound 318]
25 | +++ (>50 = +++) | 413 (TELEPGLTY; listed as Homo sapiens) [compound 413]
26 | +++ (>50 = +++) | 312 (KEWEREKAVSL; listed as Homo sapiens) [compound 312]
27 | ++ (>20% = ++) | 414 (AEGYLDLDGI; listed as Homo sapiens) [compound 414]
28 | ++++ (>75% = ++++) | 395 (AEDFVWAQW; listed as Homo sapiens) [compound 395]
29 | +++ (>50 = +++) | 454 (SESSSAFQF; listed as Homo sapiens) [compound 454]
30 | +++ (>50 = +++) | 425 (KEVDPASNTY; listed as Homo sapiens) [compound 425]

Continued, substance first:

Row | Substance | Peptide exchange (MHC class I binding score, peptide exchange yield)
31 | 46 (SELGLPKEV; listed as Homo sapiens) [compound 46] | ++ (>20% = ++)
32 | 180 (EEHSSKLQTSL; listed as Homo sapiens) [compound 180] | ++++ (>75% = ++++)
33 | 87 (GEARGDQVDW; listed as Homo sapiens) [compound 87] | ++++ (>75% = ++++)
34 | 247 (KESMLKTTL; listed as Homo sapiens) [compound 247] | +++ (>50 = +++)
35 | 52 (EDNPSGHTY; listed as Homo sapiens) [compound 52] | ++ (>20% = ++)
36 | 101 (SEENTGKTY; listed as Homo sapiens) [compound 101] | +++ (>50 = +++)
37 | 199 (AELPENLKALF; listed as Homo sapiens) [compound 199] | +++ (>50 = +++)
38 | 198 (REEEANVVL; listed as Homo sapiens) [compound 198] | +++ (>50 = +++)
39 | 271 (REDLVGPEV; listed as Homo sapiens) [compound 271] | +++ (>50 = +++)
40 | 98 (SEESAGPLL; listed as Homo sapiens) [compound 98] | +++ (>50 = +++)
41 | 97 (ELVHMINW; listed as Homo sapiens) [compound 97] | ++ (>20% = ++)
42 | 118 (SEVPVDSHYY; listed as Homo sapiens) [compound 118] | +++ (>50 = +++)
43 | 172 (RENPGMFSW; listed as Homo sapiens) [compound 172] | +++ (>50 = +++)
44 | 138 (KEAPNIVTL; listed as Homo sapiens) [compound 138] | ++++ (>75% = ++++)
45 | 235 (SESLPRAPL; listed as Homo sapiens) [compound 235] | +++ (>50 = +++)
46 | 277 (VEFPATRSL; listed as Homo sapiens) [compound 277] | +++ (>50 = +++)
47 | 125 (LEVLHQGQW; listed as Homo sapiens) [compound 125] | +++ (>50 = +++)
48 | 21 (SEAKEIKSQL; listed as Homo sapiens) [compound 21] | +++ (>50 = +++)
49 | 154 (NEAGEMIKHY; listed as Homo sapiens) [compound 154] | ++ (>20% = ++)

Row | Substance | Peptide exchange (MHC class I binding score, peptide exchange yield)
50 | 253 (QEILHGAVRF; listed as Homo sapiens) [compound 253] | +++ (>50 = +++)
51 | 149 (AETEPERHLG; listed as Homo sapiens) [compound 149] | ++ (>20% = ++)
52 | 245 (MEFQGPMPAGM; listed as Homo sapiens) [compound 245] | +++ (>50 = +++)
53 | 151 (TELQIPSF; listed as Homo sapiens) [compound 151] | ++ (>20% = ++)
54 | 234 (TEEPQRLFY; listed as Homo sapiens) [compound 234] | + (>10% = +)
55 | 279 (GEPVTQPGSLL; listed as Homo sapiens) [compound 279] | +++ (>50 = +++)
56 | 209 (AEGEPPPAL; listed as Homo sapiens) [compound 209] | +++ (>50 = +++)
57 | 140 (TEHSGIYSC; listed as Homo sapiens) [compound 140] | ++ (>20% = ++)
58 | 164 (DEDGKIVGY; listed as Homo sapiens) [compound 164] | ++ (>20% = ++)
59 | 161 (GESSEVKAVL; listed as Homo sapiens) [compound 161] | +++ (>50 = +++)
60 | 218 (REAEEKEAQL; listed as Homo sapiens) [compound 218] | +++ (>50 = +++)
61 | 155 (TEDARHPESW; listed as Homo sapiens) [compound 155] | ++++ (>75% = ++++)
62 | 135 (QEIDRGQYI; listed as Homo sapiens) [compound 135] | ++++ (>75% = ++++)
63 | 258 (IEVSSPITL; listed as Homo sapiens) [compound 258] | ++++ (>75% = ++++)
64 | 260 (VELMFPLLL; listed as Homo sapiens) [compound 260] | +++ (>50 = +++)
65 | 153 (IEIILLSGSL; listed as Homo sapiens) [compound 153] | ++++ (>75% = ++++)
66 | 75 (LETSCGSSTAY; listed as Homo sapiens) [compound 75] | + (>10% = +)
67 | 179 (EEHIFSAF; listed as Homo sapiens) [compound 179] | ++ (>20% = ++)
